{
  "source": "patent US8669352",
  "about": "(PANGENETICS B V, dated 2014)",
  "data": [
    {"biological_target": "T1, human CD40 (human, UniProt P25942 21-277)", "T1 construct": "whole, on cells; also called huCD40; CD40 expressed on JY cells", "T1 sequence (P25942 21-277)": "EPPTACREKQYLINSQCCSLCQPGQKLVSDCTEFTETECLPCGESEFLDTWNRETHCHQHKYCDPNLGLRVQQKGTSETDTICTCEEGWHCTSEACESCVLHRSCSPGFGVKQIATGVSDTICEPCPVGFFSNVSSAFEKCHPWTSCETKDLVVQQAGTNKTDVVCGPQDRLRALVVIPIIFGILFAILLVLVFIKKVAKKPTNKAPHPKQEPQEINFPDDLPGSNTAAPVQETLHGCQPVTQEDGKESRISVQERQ", "test": "FACS on JY cells expressing CD40; 100 µl PER.C6 transient supernatant harvested after 48 h (antibody concentration not equalised), FITC anti-human IgG 1/100; in the same figure Mock Control Mean 11.25 / Median 8.74, FACS control (secondary only) Mean 10.18 / Median 8.74 [Condt.]", "description": "(§1) FIG. 8. FACS analysis using JY cells. PER.C6 cell supernatant of the transient expressed variants (Q5E, K13A, E16Q, T17S, I29L, 37V, P45L, M48L, STS60NSA, T68S, S79F, and T108S) of 5D12 was harvested after 48 h. As control also supernatant was harvested of cells transfected with either ch5D12 or D15D12 together with supernatant from mock (no plasmid) transfected cells. Binding of expressed antibodies was tested by FACS using JY cells together with anti-human FITC labelled secondary antibody (1/100 diluted). As FACS control JY cells were incubated with only the secondary FITC labelled antibody.\n(§2) By FACS analysis the antigen specificity of the expressed antibodies was analyzed. JY cells are EBV transformed human B-cells, which express CD40. Briefly, 100,000 JY cells were incubated with 100 µl supernatant from the transient expression experiment at 4° C. for 20 minutes. To remove unbound antibody cells were washed with PBS containing 0.05% NaAzide and 1% BSA. As secondary antibody 1/100 diluted FITC labeled anti-human IgG (Jackson 109-095-127) was used. After 20 minutes incubation at 4° C. cells were washed. Finally cell samples were measured on a FACScan (BD).", "units": {"Mean (FL1-H)": "FL1-H", "Median (FL1-H)": "FL1-H"}, "values": [
      {"binder": "S79F variant of deimmunised 5D12 (antibody, human IgG4, V domains shown, VH on a human IgG4 backbone) VH: QVKLQESGPGLVKPSETLSITCTVSGFSISRYSVYWIRQPPGKGPEWMGMMWGGGSTDYSTSLKSRLTISKDTSKSQVFLKMNSLRTDDTAMYYCVRTDGDYWGQGTTVTVSS VL: ELQLTQSPLSLPVTLGQPASISCRSSQSLANSNGNTYLHWYLQRPGQSPRLLIYKVSNRFSGVPDRFSGSGSGTDFTLKISRVEAEDVGVYYCSQSTHVPWTFGGGTKLEIKR", "Mean (FL1-H)": 96.4, "Median (FL1-H)": 82},
      {"binder": "P45L variant of deimmunised 5D12 (antibody, human IgG4, V domains shown, VH on a human IgG4 backbone) VH: QVKLQESGPGLVKPSETLSITCTVSGFSISRYSVYWIRQPPGKGLEWMGMMWGGGSTDYSTSLKSRLTISKDTSKSQVSLKMNSLRTDDTAMYYCVRTDGDYWGQGTTVTVSS VL: ELQLTQSPLSLPVTLGQPASISCRSSQSLANSNGNTYLHWYLQRPGQSPRLLIYKVSNRFSGVPDRFSGSGSGTDFTLKISRVEAEDVGVYYCSQSTHVPWTFGGGTKLEIKR", "Mean (FL1-H)": 82.5, "Median (FL1-H)": 74.3},
      {"binder": "T108S variant of deimmunised 5D12 (antibody, human IgG4, V domains shown, VH on a human IgG4 backbone) VH: QVKLQESGPGLVKPSETLSITCTVSGFSISRYSVYWIRQPPGKGPEWMGMMWGGGSTDYSTSLKSRLTISKDTSKSQVSLKMNSLRTDDTAMYYCVRTDGDYWGQGTSVTVSS VL: ELQLTQSPLSLPVTLGQPASISCRSSQSLANSNGNTYLHWYLQRPGQSPRLLIYKVSNRFSGVPDRFSGSGSGTDFTLKISRVEAEDVGVYYCSQSTHVPWTFGGGTKLEIKR", "Mean (FL1-H)": 99, "Median (FL1-H)": 85.8},
      {"binder": "M48L variant of deimmunised 5D12 (antibody, human IgG4, V domains shown, VH on a human IgG4 backbone) VH: QVKLQESGPGLVKPSETLSITCTVSGFSISRYSVYWIRQPPGKGPEWLGMMWGGGSTDYSTSLKSRLTISKDTSKSQVSLKMNSLRTDDTAMYYCVRTDGDYWGQGTTVTVSS VL: ELQLTQSPLSLPVTLGQPASISCRSSQSLANSNGNTYLHWYLQRPGQSPRLLIYKVSNRFSGVPDRFSGSGSGTDFTLKISRVEAEDVGVYYCSQSTHVPWTFGGGTKLEIKR", "Mean (FL1-H)": 80.3, "Median (FL1-H)": 72.3},
      {"binder": "STS60NSA variant of deimmunised 5D12 (antibody, human IgG4, V domains shown, VH on a human IgG4 backbone) VH: QVKLQESGPGLVKPSETLSITCTVSGFSISRYSVYWIRQPPGKGPEWMGMMWGGGSTDYNSALKSRLTISKDTSKSQVSLKMNSLRTDDTAMYYCVRTDGDYWGQGTTVTVSS VL: ELQLTQSPLSLPVTLGQPASISCRSSQSLANSNGNTYLHWYLQRPGQSPRLLIYKVSNRFSGVPDRFSGSGSGTDFTLKISRVEAEDVGVYYCSQSTHVPWTFGGGTKLEIKR", "Mean (FL1-H)": 62.4, "Median (FL1-H)": 58.8},
      {"binder": "T68S variant of deimmunised 5D12 (antibody, human IgG4, V domains shown, VH on a human IgG4 backbone) VH: QVKLQESGPGLVKPSETLSITCTVSGFSISRYSVYWIRQPPGKGPEWMGMMWGGGSTDYSTSLKSRLSISKDTSKSQVSLKMNSLRTDDTAMYYCVRTDGDYWGQGTTVTVSS VL: ELQLTQSPLSLPVTLGQPASISCRSSQSLANSNGNTYLHWYLQRPGQSPRLLIYKVSNRFSGVPDRFSGSGSGTDFTLKISRVEAEDVGVYYCSQSTHVPWTFGGGTKLEIKR", "Mean (FL1-H)": 35.2, "Median (FL1-H)": 34}
    ]},
    {"biological_target": "T1, human CD40", "test": "FACS on JY cells expressing CD40; 100 µl PER.C6 transient supernatant harvested after 48 h (antibody concentration not equalised), FITC anti-human IgG 1/100; in the same figure Mock Control Mean 11.25 / Median 8.74, FACS control (secondary only) Mean 10.18 / Median 8.74", "description": "as §1, §2", "units": {"Mean (FL1-H)": "FL1-H", "Median (FL1-H)": "FL1-H"}, "values": [
      {"binder": "E16Q variant of deimmunised 5D12 (antibody, human IgG4, V domains shown, VH on a human IgG4 backbone) VH: QVKLQESGPGLVKPSQTLSITCTVSGFSISRYSVYWIRQPPGKGPEWMGMMWGGGSTDYSTSLKSRLTISKDTSKSQVSLKMNSLRTDDTAMYYCVRTDGDYWGQGTTVTVSS VL: ELQLTQSPLSLPVTLGQPASISCRSSQSLANSNGNTYLHWYLQRPGQSPRLLIYKVSNRFSGVPDRFSGSGSGTDFTLKISRVEAEDVGVYYCSQSTHVPWTFGGGTKLEIKR", "Mean (FL1-H)": 39.5, "Median (FL1-H)": 38.2},
      {"binder": "T17S variant of deimmunised 5D12 (antibody, human IgG4, V domains shown, VH on a human IgG4 backbone) VH: QVKLQESGPGLVKPSESLSITCTVSGFSISRYSVYWIRQPPGKGPEWMGMMWGGGSTDYSTSLKSRLTISKDTSKSQVSLKMNSLRTDDTAMYYCVRTDGDYWGQGTTVTVSS VL: ELQLTQSPLSLPVTLGQPASISCRSSQSLANSNGNTYLHWYLQRPGQSPRLLIYKVSNRFSGVPDRFSGSGSGTDFTLKISRVEAEDVGVYYCSQSTHVPWTFGGGTKLEIKR", "Mean (FL1-H)": 33.4, "Median (FL1-H)": 31.9},
      {"binder": "I37V variant of deimmunised 5D12 (antibody, human IgG4, V domains shown, VH on a human IgG4 backbone; also called 137V; 29I-37V) VH: QVKLQESGPGLVKPSETLSITCTVSGFSISRYSVYWVRQPPGKGPEWMGMMWGGGSTDYSTSLKSRLTISKDTSKSQVSLKMNSLRTDDTAMYYCVRTDGDYWGQGTTVTVSS VL: ELQLTQSPLSLPVTLGQPASISCRSSQSLANSNGNTYLHWYLQRPGQSPRLLIYKVSNRFSGVPDRFSGSGSGTDFTLKISRVEAEDVGVYYCSQSTHVPWTFGGGTKLEIKR", "Mean (FL1-H)": 96, "Median (FL1-H)": 82},
      {"binder": "Q5E variant of deimmunised 5D12 (antibody, human IgG4, V domains shown, VH on a human IgG4 backbone) VH: QVKLEESGPGLVKPSETLSITCTVSGFSISRYSVYWIRQPPGKGPEWMGMMWGGGSTDYSTSLKSRLTISKDTSKSQVSLKMNSLRTDDTAMYYCVRTDGDYWGQGTTVTVSS VL: ELQLTQSPLSLPVTLGQPASISCRSSQSLANSNGNTYLHWYLQRPGQSPRLLIYKVSNRFSGVPDRFSGSGSGTDFTLKISRVEAEDVGVYYCSQSTHVPWTFGGGTKLEIKR", "Mean (FL1-H)": 39, "Median (FL1-H)": 37.5},
      {"binder": "K13A variant of deimmunised 5D12 (antibody, human IgG4, V domains shown, VH on a human IgG4 backbone) VH: QVKLQESGPGLVAPSETLSITCTVSGFSISRYSVYWIRQPPGKGPEWMGMMWGGGSTDYSTSLKSRLTISKDTSKSQVSLKMNSLRTDDTAMYYCVRTDGDYWGQGTTVTVSS VL: ELQLTQSPLSLPVTLGQPASISCRSSQSLANSNGNTYLHWYLQRPGQSPRLLIYKVSNRFSGVPDRFSGSGSGTDFTLKISRVEAEDVGVYYCSQSTHVPWTFGGGTKLEIKR", "Mean (FL1-H)": 31.2, "Median (FL1-H)": 30}
    ]}
  ]
}
